Data published in US20250049896A1 (Regeneron, published 2025).
Numbering of substitutions follows the chain as printed.

B1: 12848B (antibody, human IgG1, kappa, V domains shown)
VH: EVQLVESGGGLVQPGRSLTLSCAASGFTFDNFGMHWVRQGPGKGLEWVSGLTWNSGVIGYADSVKGRFTISRDNAKNSLYLQMNSLRPEDTALYYCAKDIRNYGPFDYWGQGTLVTVSS
VL: not shown
notes: Tested as bivalent human IgG1 from CHO primary supernatant; also called H1H12848B; REGN17515
B2: 12795B scFv (VH-VK) (scFv)
chain: EVQLVESGGGLVQPGGSLRLSCATSGFTFTSYDMKWVRQAPGLGLEWVSAISGSGGNTYYADSVKGRFTISRDNSRNTLYLQMNSLRAEDTAVYYCTRSHDFGAFDYFDYWGQGTLVTVSSDIQMTQSPSSLSASVGDRVTITCRASQGIRDHFGWYQQKPGKAPKRLIYAASSLHSGVPSRFSGSGSGTEFTLTISSLQPEDFATYYCLQYDTYPLTFGGGTKVEIK
B3: 12844B (antibody, human IgG1, kappa, V domains shown)
VH: EVQLVESGGSVVRPGGSLRLSCEASGFTFDDYGMSWVRQDPGKGLEWVSGINWNGDRTNYADSVKGRFIISRDNAKNSVYLQMNSLRAEDSALYHCARDQGLGVAATLDYWGQGTLVTVSS
VL: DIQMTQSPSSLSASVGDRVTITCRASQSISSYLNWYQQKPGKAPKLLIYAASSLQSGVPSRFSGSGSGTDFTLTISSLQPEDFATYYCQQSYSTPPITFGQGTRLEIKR
notes: Tested as bivalent human IgG1 from CHO primary supernatant
B4: 12795B scFv (VK-VH) (scFv)
scFv: DIQMTQSPSSLSASVGDRVTITCRASQGIRDHFGWYQQKPGKAPKRLIYAASSLHSGVPSRFSGSGSGTEFTLTISSLQPEDFATYYCLQYDTYPLTFGGGTKVEIKGGGGSGGGGSGGGGSEVQLVESGGGLVQPGGSLRLSCATSGFTFTSYDMKWVRQAPGLGLEWVSAISGSGGNTYYADSVKGRFTISRDNSRNTLYLQMNSLRAEDTAVYYCTRSHDFGAFDYFDYWGQGTLVTVSS
notes: CHO supernatant; Vk-3xG4S-Vh
B5: 12798B scFv (VH-VK) (scFv)
scFv: EVQLVESGGDLVQPGRSLRLSCAASGFTFDDYAMHWVRQAPGKGLEWVSGISWNSATRVYADSVKGRFTISRDNAKNFLYLQMNSLRSEDTALYHCAKDMDISLGYYGLDVWGQGTTVTVSSGGGGSGGGGSGGGGSEIVMTQSPATLSVSPGERATLSCRASQTVSSNLAWYQQKPGQAPRLLIYGSSSRATGIPARFSGSGSGTEFTLTISSLQSEDFAVYYCQQYNNWPPYTFGQGTKLEIK
notes: CHO supernatant
B6: 12850B (antibody, human IgG1, kappa, V domains shown)
VH: QVQLVQSGAEVKKPGSSVKVSCKASGGTFNTYAITWVRQAPGQGLEWMGGIIPISGIAEYAQKFQGRVTITTDDSSTTAYMELNSLRSEDTAVYYCASWNYALYYFYGMDVWGRGTTVTVSS
VL: not shown
notes: Tested as bivalent human IgG1 from CHO primary supernatant; also called H1H12850B; REGN17516
B7: 12798B scFv (VK-VH) (scFv)
scFv: EIVMTQSPATLSVSPGERATLSCRASQTVSSNLAWYQQKPGQAPRLLIYGSSSRATGIPARFSGSGSGTEFTLTISSLQSEDFAVYYCQQYNNWPPYTFGQGTKLEIKGGGGSGGGGSGGGGSEVQLVESGGDLVQPGRSLRLSCAASGFTFDDYAMHWVRQAPGKGLEWVSGISWNSATRVYADSVKGRFTISRDNAKNFLYLQMNSLRSEDTALYHCAKDMDISLGYYGLDVWGQGTTVTVSS
notes: CHO supernatant; Vk-3xG4S-Vh
B8: 12847B (antibody, human IgG1, kappa, V domains shown)
VH: EVQLVESGGGLVQPGRSLRLSCAASGFTFDDYAMNWVRQAPGKGLEWVSGISWSSGSMDYADSVKGRFTISRDNAKNSLYLQMNSLRTEDTALYYCAKAREVGDYYGMDVWGQGTTVTVSS
VL: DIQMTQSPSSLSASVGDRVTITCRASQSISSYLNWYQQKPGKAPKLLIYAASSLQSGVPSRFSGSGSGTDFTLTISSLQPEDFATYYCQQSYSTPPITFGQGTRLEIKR
notes: Tested as bivalent human IgG1 from CHO primary supernatant; also called H1H12847B; REGN17514
B9: 12802B (antibody, human IgG1, kappa, V domains shown)
VH: QVQLVESGGGLVKPGGSLRLSCAASGFTFSDYFMSWIRQAPGKGLEWVSYISSTGSTINYADSVKGRFTISRDNVKNSLYLQMTSLRVEDTAVYYCTRDNWNYEYWGQGTLVTVSS
VL: EIVMTQSPATLSVSPGERATLSCRASQSVSINLAWYQQKPGQAPRLLIFVASTRATGIPARFSGSGSGTEFTLTISSLQSEDFATYYCQQYDIWPYTFGQGTKLEIKR
notes: as for B3
B10: 12798B Fab (Fab, V domains shown)
VH: EVQLVESGGDLVQPGRSLRLSCAASGFTFDDYAMHWVRQAPGKGLEWVSGISWNSATRVYADSVKGRFTISRDNAKNFLYLQMNSLRSEDTALYHCAKDMDISLGYYGLDVWGQGTTVTVSS
VL: not shown
notes: CHO supernatant
B11: 12801B (antibody, human IgG1, kappa, V domains shown)
VH: EVQLLESGGALVQPGGSLRLSCAASGFTFTSYAMHWVRQAPGKGLEWVSSIRGSGGGTYSADSVKGRFTISRDNSRDTLYLQMNSVRAEDTAVYYCARSHDYGAFDFFDYWGQGTLVTVSS
VL: DIQMTQSPSSLSASVGDRVTITCRASQGIRTDLGWYQQKPGKAPKRLIYAASSLQSGVPSRFSGSGSGTEFTLTISSLRPEDFATFYCLQYNSYPLTFGGGTKVEIKR
notes: as for B3
B12: 12795B Fab (Fab, V domains shown)
VH: EVQLVESGGGLVQPGGSLRLSCATSGFTFTSYDMKWVRQAPGLGLEWVSAISGSGGNTYYADSVKGRFTISRDNSRNTLYLQMNSLRAEDTAVYYCTRSHDFGAFDYFDYWGQGTLVTVSS
VL: B11 VL with T31D, D32H, L33F, Q55H, R79Q, F86Y, N92D, S93T
notes: CHO supernatant
B13: 12808B (antibody, human IgG1, kappa, V domains shown)
VH: QLQLQESGPGLVKPSETLSLTCTVSGESISSNTYYWGWIRQPPGKGLEWIGSIDYSGTTNYNPSLKSRVTISVDTSRNHFSLRLRSVTAADTAVYYCAREWGNYGYYYGMDVWGQGTTVTVSS
VL: DIQMTQSPSSLSASVGDRVTINCRASQGIRNDLGWYQQKPGKAPKRLIYAASSLQSGVPLRFSGSGSGTEFTLTINNLQPEDFATYYCLSHNSYPWTFGQGTKVEIKR
notes: as for B3
B14: 12835B (antibody, human IgG1, kappa, V domains shown)
VH: EVQLVESGGGLIQPGGSLRLSCEASGFTFRNYEMNWVRQAPGKGLEWVSYISSSGNMKDYAESVKGRFTISRDNVKNSLQLQMNSLRVEDTAVYYCARDEFPYGMDVWGQGTTVTVSS
VL: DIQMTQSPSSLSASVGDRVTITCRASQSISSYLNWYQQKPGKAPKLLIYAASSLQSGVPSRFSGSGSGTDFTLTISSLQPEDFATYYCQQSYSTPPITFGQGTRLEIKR
notes: Tested as bivalent human IgG1 from CHO primary supernatant; also called H1H12835B; REGN17509
B15: 12843B (antibody, human IgG1, kappa, V domains shown)
VH: EVQLVESGGGLVQPGGSLRLSCAASGFTFNIFEMNWVRQAPGKGLEWISYISSRGTTTYYADSVRGRFTISRDNAKNSLYLQMNSLRAEDTAVYYCARDYEATIPFDFWGQGTLVTVSS
VL: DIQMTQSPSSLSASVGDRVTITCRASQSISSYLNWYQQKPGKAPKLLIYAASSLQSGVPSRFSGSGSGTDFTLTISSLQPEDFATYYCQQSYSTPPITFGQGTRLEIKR
notes: Tested as bivalent human IgG1 from CHO primary supernatant; also called H1H12843B; REGN17512

Experiments:
[1] = target: T1, hmm.hTfRC (REGN2431), human transferrin receptor extracellular domain with hexahistidine-myc-myc tag (human, UniProt P02786 89-760); experiment: SPR (Biacore), mAb captured on anti-human Fc, 100 nM hTFR-mmh, 25 C
T1 construct: Monomeric recombinant protein, 79210 g/mol; also called hTFR-mmh; His-myc-myc-hTFRC ecto
Method: (§1) Biacore binding kinetics assays were conducted for the interaction of 32 anti-human TfR IgG1 monoclonal antibodies from CHO supernatants with TfR reagents at 25° C.
(§2) Equilibrium dissociation constants (KD) for the interaction of anti-TfR monoclonal antibodies with human and fascicularis monkey TfR ecto domain recombinant proteins were determined using a real-time surface plasmon resonance (SPR) based Biacore S200 biosensor. All binding studies were performed in 10 mM HEPES, 150 mM NaCl, 3 mM EDTA, and 0.05% v/v surfactant Tween-20, pH 7.4 (HBS-EP) running buffer at […]. The Biacore CM5 sensor surface was first derivatized by amine coupling with a monoclonal mouse anti-human Fc antibody (REGN2567) followed by a step to capture anti-TfR monoclonal antibodies in CHO conditioned media. […] The dissociation of TfR bound to anti-TfR monoclonal antibodies was monitored for 3 minutes in HBS-EP running buffer. At the end of each cycle, the anti-TfR monoclonal antibodies capture surface was regenerated using a 12-sec injection of 20 mM H₃PO₄. The association rate (ka) and dissociation rate (kd) were determined by fitting the real-time binding sensorgrams to a 1:1 binding model with mass transport limitation using Scrubber 2.0 c software. The dissociation equilibrium constant (KD) and dissociative half-life (t½) were calculated from the kinetic rate constants as: […]

[2] = target: T2, mf TFRC ecto-mmh (REGN2054), monomeric monkey (cyno) Tfrc ectodomain with C-terminal myc-myc-hexahistidine tag (monkey (cyno), Macaca fascicularis, UniProt H9EXL1 89-760); experiment: SPR (Biacore), mAb captured on anti-human Fc, 100 nM mfTfR-mmh, 25 C
T2 construct: range 89-760; also called mfTfR-mmh; mfTFR-mmh
Method: as §1, §2

[3] = target: T3, Hmm-hTFRC (REGN2431), monomeric human transferrin receptor ectodomain with N-terminal hexahistidine-myc-myc … (human, UniProt P02786 89-760); experiment: blocking ELISA, supernatant; Hmm-hTFRC binding to immobilized human holo-Tf
T3 construct: also called hmm.hTfR(C89-F763); His-myc-myc-hTFRC ecto
Method: In the blocking assay, the anti-human Transferrin goat IgG polyclonal antibody (anti-hTf pAb) was passively absorbed at a concentration of 2 micrograms/mL in PBS on a 96-well microtiter plate overnight at 4° C. […] To the same plate, human holo-Tf was then added at a concentration of 1 micrograms/mL in PBS+0.5% BSA for 2 hours at room temperature. […] After a 1-hour incubation, the mixtures were transferred to the human holo-Tf microtiter plates. […] The plates were developed using TMB substrate solution according to the manufacturer's recommended procedure and absorbance at 450 nm was measured on a Victor™ Multilabel Plate Reader.
The ability of the anti-TfR antibody to block human TFRC binding to human holo-Tf was evaluated using an ELISA-based blocking assay.

T3 sequence (P02786 other isoform, or with tags, fused parts or gaps): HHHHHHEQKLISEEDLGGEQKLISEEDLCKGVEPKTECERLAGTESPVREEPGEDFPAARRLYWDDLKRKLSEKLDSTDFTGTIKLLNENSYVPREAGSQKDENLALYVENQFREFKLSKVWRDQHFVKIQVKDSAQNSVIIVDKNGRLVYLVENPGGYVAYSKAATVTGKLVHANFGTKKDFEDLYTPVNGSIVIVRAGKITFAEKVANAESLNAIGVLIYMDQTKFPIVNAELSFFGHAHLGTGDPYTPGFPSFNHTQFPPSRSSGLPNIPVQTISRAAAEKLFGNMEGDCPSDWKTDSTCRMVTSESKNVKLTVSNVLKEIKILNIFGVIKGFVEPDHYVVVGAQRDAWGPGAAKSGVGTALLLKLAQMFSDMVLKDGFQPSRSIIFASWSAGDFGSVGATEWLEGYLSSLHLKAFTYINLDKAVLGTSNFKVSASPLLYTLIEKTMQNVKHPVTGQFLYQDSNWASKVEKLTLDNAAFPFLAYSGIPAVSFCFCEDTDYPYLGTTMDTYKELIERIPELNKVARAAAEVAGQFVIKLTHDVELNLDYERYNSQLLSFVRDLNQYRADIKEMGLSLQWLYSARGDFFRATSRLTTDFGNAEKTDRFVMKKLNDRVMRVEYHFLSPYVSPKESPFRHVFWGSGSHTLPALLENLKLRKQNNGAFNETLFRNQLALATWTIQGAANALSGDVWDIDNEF
T1 sequence (P02786 other isoform, or with tags, fused parts or gaps): as above
T2 sequence (chain, as listed by the source): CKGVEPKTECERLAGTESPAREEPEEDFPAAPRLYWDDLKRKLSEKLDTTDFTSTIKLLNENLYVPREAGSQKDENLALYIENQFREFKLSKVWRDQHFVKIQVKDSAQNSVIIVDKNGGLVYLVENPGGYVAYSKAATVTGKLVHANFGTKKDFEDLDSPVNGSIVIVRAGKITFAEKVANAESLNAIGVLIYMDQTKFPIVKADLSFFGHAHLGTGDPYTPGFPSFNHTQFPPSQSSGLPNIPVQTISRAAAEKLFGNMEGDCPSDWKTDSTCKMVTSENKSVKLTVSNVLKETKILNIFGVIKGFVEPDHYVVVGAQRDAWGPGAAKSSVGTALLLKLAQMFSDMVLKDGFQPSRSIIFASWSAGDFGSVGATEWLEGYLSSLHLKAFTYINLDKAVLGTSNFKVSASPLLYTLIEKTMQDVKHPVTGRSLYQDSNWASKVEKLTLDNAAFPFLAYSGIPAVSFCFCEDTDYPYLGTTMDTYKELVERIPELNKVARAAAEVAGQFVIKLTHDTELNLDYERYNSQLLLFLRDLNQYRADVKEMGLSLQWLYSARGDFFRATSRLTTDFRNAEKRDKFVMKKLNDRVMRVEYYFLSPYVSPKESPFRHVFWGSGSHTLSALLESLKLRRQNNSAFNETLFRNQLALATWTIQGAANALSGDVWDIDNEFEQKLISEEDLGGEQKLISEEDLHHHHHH

100 nM Ag Bound (RU) [1]	Kd [1]	koff [1]	kon [1]	t½ [1]	100 nM Ag Bound (RU) [2]	Kd [2]	koff [2]	kon [2]	t½ [2]	% Blocking [3]	Binder
823 RU	0.494 nM	4.99e-05 s⁻¹	101000 M⁻¹ s⁻¹	232 min	261 RU	18.2 nM	0.000962 s⁻¹	52900 M⁻¹ s⁻¹	12 min		B1
										45%	B2
946 RU	0.935 nM	0.000122 s⁻¹	131000 M⁻¹ s⁻¹	95 min	437 RU	9.68 nM	0.000735 s⁻¹	75900 M⁻¹ s⁻¹	15.7 min		B3
										23%	B4
										0%	B5
725 RU	0.215 nM	1.76e-05 s⁻¹	83700 M⁻¹ s⁻¹	657 min	87 RU	15.5 nM	0.00157 s⁻¹	101000 M⁻¹ s⁻¹	7.3 min		B6
										10%	B7
895 RU	1.62 nM	0.000171 s⁻¹	105000 M⁻¹ s⁻¹	67.6 min	702 RU	3.36 nM	0.000333 s⁻¹	99200 M⁻¹ s⁻¹	34.7 min		B8
903 RU	0.236 nM	2.92e-05 s⁻¹	123000 M⁻¹ s⁻¹	395 min	464 RU	7.51 nM	0.000529 s⁻¹	70500 M⁻¹ s⁻¹	21.8 min		B9
										10%	B10
598 RU	0.513 nM	4.19e-05 s⁻¹	81900 M⁻¹ s⁻¹	276 min	159 RU	10.2 nM	0.000653 s⁻¹	64000 M⁻¹ s⁻¹	17.7 min		B11
										44%	B12
964 RU	0.894 nM	0.000107 s⁻¹	119000 M⁻¹ s⁻¹	108 min	626 RU	5.78 nM	0.000454 s⁻¹	78500 M⁻¹ s⁻¹	25.5 min		B13
1150 RU	3.11 nM	0.000417 s⁻¹	134000 M⁻¹ s⁻¹	27.7 min	254 RU	17.7 nM	0.00168 s⁻¹	95100 M⁻¹ s⁻¹	6.9 min		B14
854 RU	1.78 nM	0.000168 s⁻¹	94200 M⁻¹ s⁻¹	68.8 min	399 RU	15 nM	0.00118 s⁻¹	79000 M⁻¹ s⁻¹	9.8 min		B15
